From publication PMC10881741, “Structural modifications toward improved lead-203/lead-212 peptide-based image-guided alpha-particle radiopharmaceutical therapies for neuroendocrine tumors” (European Journal of Nuclear Medicine and Molecular Imaging, 2023)
Read-outs that look alike come from different tables or passages of the source.

Experiments:
SSTR2 = molecular target: T1, SSTR2 (Rattus norvegicus, UniProt P30680); test: In vitro competitive binding assay ([^125I]I-TOC displacement in AR42J cells)
T1 construct: host or cells: AR42J rat pancreatic acinar cells
T1 sequence (P30680 whole entry): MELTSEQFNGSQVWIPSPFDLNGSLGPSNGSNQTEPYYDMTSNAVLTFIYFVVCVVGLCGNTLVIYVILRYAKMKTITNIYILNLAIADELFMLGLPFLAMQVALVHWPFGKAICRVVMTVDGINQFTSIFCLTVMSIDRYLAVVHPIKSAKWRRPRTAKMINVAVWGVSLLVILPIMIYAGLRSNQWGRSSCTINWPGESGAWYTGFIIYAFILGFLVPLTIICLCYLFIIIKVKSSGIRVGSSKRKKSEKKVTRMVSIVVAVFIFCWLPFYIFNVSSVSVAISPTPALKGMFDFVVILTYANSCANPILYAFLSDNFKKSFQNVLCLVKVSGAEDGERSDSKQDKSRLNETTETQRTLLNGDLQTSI
Procedure: SSTR2-positive AR42J rat pancreatic acinar cells were purchased from the American Type Culture Collection (ATCC; CRL-1492) and were cultured in RPMI 1640 medium, supplemented with 10% fetal bovine serum (FBS), 2 mM glutamine, and antibiotics (0.1 mg/mL streptomycin and 100 IU penicillin) at 37 °C under a humidified condition (5% CO2). The cells were plated into poly-D-lysine-coated 24-well plates at a density of 1.0 × 10^5 cells per well. […] Cells were then washed twice with ice-cold PBS and lysed with 0.5 N NaOH. The radioactivities of the harvested samples were measured using an automated gamma counter (PerkinElmer Cobra II; PerkinElmer, Freemont, CA). IC50 was determined using GraphPad Prism V8.0.

[1] = Stability in water and human serum (radio-HPLC); assay type: in vitro ADME; conditions: ^203Pb-labeled, 37 °C, up to 24 h
Source text: New peptides were designed and synthesized using standard fluorenylmethyloxycarbonyl (Fmoc)-based solid phase peptide synthesis. The peptides were developed under two basic strategies: (a) a click cyclization approach to substitute the disulfide bond of TOC with a triazole link, which potentially improves PK and in vivo stability; and (b) Pb-specific structural optimization based on TOC by incorporating the new chelator composition and various sizes of PEG linkers (Fig. 1 and Table 1). […] The radiolabeling and purification process for the preparation of ^203Pb/^212Pb-labeled peptides followed the methods outlined in a previously published study. […] The stability of the most promising RPDC, [^203Pb]Pb-PSC-PEG2-TOC, was evaluated in water and normal human serum up to 24 h of incubation at 37 °C using the radio-HPLC system. Furthermore, PSC-PEG2-TOC was assessed for a radiolabeling yield with clinically relevant ^203Pb activity (1.8–3.6 GBq) to assess changes in performance with increases in molar activity (MBq/nmol; Supplementary Material).
PSC-PEG2-TOC was characterized for stability in water and human serum. […] The penetrate by centrifugation (serum samples) or the samples in water were analyzed by a radio-HPLC system (Agilent 1200 Series connected with an IN/US β-RAM Model 4 radio-detector) to monitor the degree of peptide degradation.

midgut NETs = test system: midgut NETs; design: method as in PMID 28076709, PMID 28428192; conditions: patients with midgut NETs ref 5, 6; cited from earlier work
[2] = In vivo biodistribution of ^203Pb-labeled peptides; design: species or system mice; conditions: female, athymic nu/nu, mouse, intravenous, 37 kBq, total radioactivity; for tissue uptake at 3 h: 3 h post-administration; for tissue uptake at 24 h: 24 h post-administration; for tissue uptake at 1 h: 1 h post-administration
Procedure: AR42J cells (5.0 × 10^6 cells/animal) were implanted subcutaneously on the left shoulder of female athymic nu/nu mice. […] Extra groups of mice were co-administered 37 kBq of ^203Pb-PSC-PEG2-TOC with DL-lysine (400 mg/kg) to determine the effect of amino acid on renal uptake of the radiopharmaceutical. Mice (n=3 per time point) were euthanized at 1, 3, and 24 h post-administration, and tumors and organs/tissues of interest were excised and weighed. The radioactivities of the samples were measured using the gamma counter.

[3] = large intestine, read-out: Large intestine
[4] = small intestine, read-out: Small intestine

Molecule: C[C@@H](O)[C@@H]1NC(=O)[C@H](CCCCN)NC(=O)[C@@H](Cc2c[nH]c3ccccc23)NC(=O)[C@H](Cc2ccc(O)cc2)NC(=O)[C@@H](NC(=O)[C@@H](Cc2ccccc2)NC(=O)CCOCCOCCNC(=O)CN2CCN(CC(=O)O)CCN(CC(N)=O)CCN(CC(=O)O)CC2)CSSC[C@@H](C(=O)N[C@H](CO)[C@@H](C)O)NC1=O [PSC-PEG2-TOC, PSC-PEG2-D-Phe-cyclo[Cys-Tyr-D-Trp-Lys-Thr-Cys]-Thr-OH]
- Improvement in affinity vs. DOTATOC (factor) (SSTR2): > 2
- Radiochemical and metabolic stability [1]: robust radiochemical stability

Molecule: [^177Lu]Lu-DOTATATE
- Complete response rate (midgut NETs): 1%
- Objective responses (midgut NETs): 18–30%

Molecule: C[C@@H](O)[C@@H]1NC(=O)[C@H](CCCCN)NC(=O)[C@@H](Cc2c[nH]c3ccccc23)NC(=O)[C@H](Cc2ccc(O)cc2)NC(=O)[C@@H](NC(=O)[C@@H](Cc2ccccc2)NC(=O)CN2CCN(CC(=O)O)CCN(CC(=O)O)CCN(CC(=O)O)CC2)CSSC[C@@H](C(=O)N[C@H](CO)[C@@H](C)O)NC1=O [[^203Pb]Pb-DOTATOC, metal not drawn, reference compound]
- tissue uptake at 3 h ([2]; blood, read-out: Blood): 0.02 %ID/g
- tissue uptake at 24 h ([2]; blood, read-out: Blood): 0.01 %ID/g
- tissue uptake at 1 h ([2]; brain, read-out: Brain): 0.03 ± 0.01 %ID/g
- tissue uptake at 3 h ([2]; brain, read-out: Brain): 0.01 %ID/g
- tissue uptake at 24 h ([2]; brain, read-out: Brain): 0.01 %ID/g
- tissue uptake at 3 h ([2]; heart, read-out: Heart): 0.07 ± 0.05 %ID/g
- tissue uptake at 24 h ([2]; heart, read-out: Heart): 0.02 ± 0.01 %ID/g
- tissue uptake at 1 h ([2]; kidneys, read-out: Kidneys): 12.2 %ID/g
- tissue uptake at 3 h ([2]; kidneys, read-out: Kidneys): 14.6 ± 2.34 %ID/g
- tissue uptake at 24 h ([2]; kidneys, read-out: Kidneys): 7.6 %ID/g
- tissue uptake at 1 h [2, 3]: 0.32 ± 0.12 %ID/g
- tissue uptake at 3 h [2, 3]: 1.11 ± 0.74 %ID/g
- tissue uptake at 24 h [2, 3]: 0.17 ± 0.04 %ID/g
- tissue uptake at 1 h ([2]; liver, read-out: Liver): 0.28 ± 0.05 %ID/g
- tissue uptake at 3 h ([2]; liver, read-out: Liver): 0.16 ± 0.02 %ID/g
- tissue uptake at 24 h ([2]; liver, read-out: Liver): 0.08 ± 0.01 %ID/g
- tissue uptake at 1 h ([2]; lung, read-out: Lung): 0.91 ± 0.41 %ID/g
- tissue uptake at 3 h ([2]; lung, read-out: Lung): 0.59 ± 0.23 %ID/g
- tissue uptake at 24 h ([2]; lung, read-out: Lung): 0.27 ± 0.04 %ID/g
- tissue uptake at 1 h ([2]; muscle, read-out: Muscle): 0.1 ± 0.03 %ID/g
- tissue uptake at 3 h ([2]; muscle, read-out: Muscle): 0.04 ± 0.01 %ID/g
- tissue uptake at 24 h ([2]; muscle, read-out: Muscle): 0.02 %ID/g
- tissue uptake at 1 h [2, 4]: 1.91 ± 0.8 %ID/g
- tissue uptake at 3 h [2, 4]: 1.78 ± 2.19 %ID/g
- tissue uptake at 24 h [2, 4]: 0.08 ± 0.06 %ID/g
- tissue uptake at 1 h ([2]; spleen, read-out: Spleen): 0.27 ± 0.05 %ID/g
- tissue uptake at 24 h ([2]; spleen, read-out: Spleen): 0.1 ± 0.01 %ID/g
- tissue uptake at 1 h ([2]; tumor, read-out: Tumor): 4.6 ± 0.18 %ID/g
- tissue uptake at 3 h ([2]; tumor, read-out: Tumor): 4.47 ± 0.75 %ID/g
- tissue uptake at 24 h ([2]; tumor, read-out: Tumor): 2.44 ± 0.19 %ID/g
